Assay results from the supplement of paper PMC5998384.

Experiments:
HeLa Kyoto [1] = experiment: solubility in G1/S (NP-40 vs SDS abundance) (log2 ratio); higher = more soluble; settings: cell cycle stage: G1/S
HeLa Kyoto [2] = experiment: melting temperature (median over replicates), in situ; higher = more thermally stable
HeLa Kyoto [3] = experiment: thermal stability score vs G1/S (z-score of summed log2 fold changes over temperatures); higher = more thermally stable than in G1/S
HeLa Kyoto [4] = experiment: solubility change mitosis vs G1/S (difference of NP-40 vs SDS log2 ratios) (log2 ratio difference); higher = more soluble in mitosis
[5] = cell cycle stage: early G1 (4.5 h after nocodazole release)
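For melting temperature (median over replicates), in situ in this document: HeLa Kyoto cells synchronized by double thymidine or nocodazole block, proteins quantified by TMT10plex mass spectrometry, three independent biological replicates.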
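For solubility change mitosis vs G1/S (difference of NP-40 vs SDS log2 ratios) in this document: synchronized HeLa Kyoto cells (double thymidine block for G1/S, nocodazole release for mitosis), protein amounts in NP-40 versus SDS lysates quantified by mass spectrometry, three biological replicates.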
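For solubility in G1/S (NP-40 vs SDS abundance) in this document: HeLa Kyoto cells arrested at G1/S by double thymidine block, proteins quantified by TMT10plex mass spectrometry in mild NP-40 versus SDS extracts, three biological replicates.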
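For thermal stability score vs G1/S (z-score of summed log2 fold changes over temperatures) in this document: synchronized HeLa Kyoto cells, proteins quantified by TMT10plex mass spectrometry, three biological replicates, mitosis taken 0.5 h after nocodazole release, G1/S directly after double thymidine block.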

Sequence	solubility in G1/S (log2) (HeLa Kyoto [1])	melting temperature (HeLa Kyoto [2]; cell cycle stage: G1/S)	melting temperature (HeLa Kyoto [2]; cell cycle stage: mitosis)	thermal stability score (HeLa Kyoto [3]; [5])	thermal stability score (HeLa Kyoto [3]; cell cycle stage: mitosis)	solubility change mitosis (log2) (HeLa Kyoto [4])
MLDSLLALGGLVLLRDSVEWEGRSLLKALVKKSALCGEQVHILGCEVSEEEFREGFDSDINNRLVYHDFFRDPLNWSKTEEAFPGGPLGALRAMCKRTDPVPVTIALDSLSWLLLRLPCTTLCQVLHAVSHQDSCPGDSSSVGKVSVLGLLHEELHGPGPVGALSSLAQTEVTLGGTMGQASAHILCRRPRQRPTDQTQWFSILPDFSLDLQEGPSVESQPYSDPHIPPVDPTTHLTFNLHLSKKEREARDSLILPFQFSSEKQQALLRPRPGQATSHIFYEPDAYDDLDQEDPDDDLDI [ELP5]	0.313	54.9 °C	53.9 °C	-2.95	-4.18	-0.11
MLGGSLGSRLLRGVGGSHGRFGARGVREGGAAMAAGESMAQRMVWVDLEMTGLDIEKDQIIEMACLITDSDLNILAEGPNLIIKQPDELLDSMSDWCKEHHGKSGLTKAVKESTITLQQAEYEFLSFVRQQTPPGLCPLAGNSVHEDKKFLDKYMPQFMKHLHYRIIDVSTVKELCRRWYPEEYEFAPKKAASHRALDDISESIKELQFYRNNIFKKKIDEKKRKIIENGENEKTVS [REXO2]	0.239	56.8 °C	56.5 °C	-2.25	-3.59	0.144
MLGRSLREVSAALKQGQITPTELCQKCLSLIKKTKFLNAYITVSEEVALKQAEESEKRYKNGQSLGDLDGIPIAVKDNFSTSGIETTCASNMLKGYIPPYNATVVQKLLDQGALLMGKTNLDEFAMGSGSTDGVFGPVKNPWSYSKQYREKRKQNPHSENEDSDWLITGGSSGGSAAAVSAFTCYAALGSDTGGSTRNPAAHCGLVGFKPSYGLVSRHGLIPLVNSMDVPGILTRCVDDAAIVLGALAGPDPRDSTTVHEPINKPFMLPSLADVSKLCIGIPKEYLVPELSSEVQSLWSKAADLFESEGAKVIEVSLPHTSYSIVCYHVLCTSEVASNMARFDGLQYGHRCDIDVSTEAMYAATRREGFNDVVRGRILSGNFFLLKENYENYFVKAQKVRRLIANDFVNAFNSGVDVLLTPTTLSEAVPYLEFIKEDNRTRSAQDDIFTQAVNMAGLPAVSIPVALSNQGLPIGLQFIGRAFCDQQLLTVAKWFEKQVQFPVIQLQELMDDCSAVLENEKLASVSLKQ [QRSL1]	0.0331	50 °C	50.4 °C	-0.191	-0.152	-0.131
MLLLTRSPTAWHRLSQLKPRVLPGTLGGQALHLRSWLLSRQGPAETGGQGQPQGPGLRTRLLITGLFGAGLGGAWLALRAEKERLQQQKRTEALRQAAVGQGDFHLLDHRGRARCKADFRGQWVLMYFGFTHCPDICPDELEKLVQVVRQLEAEPGLPPVQPVFITVDPERDDVEAMARYVQDFHPRLLGLTGSTKQVAQASHSYRVYYNAGPKDEDQDYIVDHSIAIYLLNPDGLFTDYYGRSRSAEQISDSVRRHMAAFRSVLS [SCO2]	0.334	50.5 °C	51.5 °C	1.37	1.52	-0.127
MLLSVPLLLGLLGLAVAEPAVYFKEQFLDGDGWTSRWIESKHKSDFGKFVLSSGKFYGDEEKDKGLQTSQDARFYALSASFEPFSNKGQTLVVQFTVKHEQNIDCGGGYVKLFPNSLDQTDMHGDSEYNIMFGPDICGPGTKKVHVIFNYKGKNVLINKDIRCKDDEFTHLYTLIVRPDNTYEVKIDNSQVESGSLEDDWDFLPPKKIKDPDASKPEDWDERAKIDDPTDSKPEDWDKPEHIPDPDAKKPEDWDEEMDGEWEPPVIQNPEYKGEWKPRQIDNPDYKGTWIHPEIDNPEYSPDPSIYAYDNFGVLGLDLWQVKSGTIFDNFLITNDEAYAEEFGNETWGVTKAAEKQMKDKQDEEQRLKEEEEDKKRKEEEEAEDKEDDEDKDEDEEDEEDKEEDEEEDVPGQAKDEL [CALR]	0.0117	54.6 °C	54.9 °C	3.64	3.96	0.0133
